Patent US20130071431A1, “Method for Preserving Polypeptides Using A Sugar and Polyethyleneimine” (Stabilitech Ltd., priority 2008, published 2013)

Experiments:
[1] = Luciferase luminescence assay after freeze-drying (Example 4); assay type: biochemical; details: freeze-dried in excipient of 1.092M sucrose, 0.0499M stachyose and 27 nM, 2.7 nM or 0.27 nM PEI
Procedure: The final concentrations of PEI and sugars were: • PEI: 27 nM, 2.7 nM or 0.27 nM • sucrose: 1.092 M, and • stachyose: 0.0499M.
All vials were set up in triplicate.
The vials contained a free-flowing freeze-dried powder. The powder was reconstituted by adding 1 ml PBS. […] Luciferase assay reagent was added to each well according to manufacturer's instructions and luminescence was read on a Synergy 2 luminometer.

[2] = Luciferase assay with luciferin reagent, freeze-dried with BSA (Example 10); assay type: biochemical
Procedure: Luciferase stock was purchased from Promega Corporation (code E1701) and consisted of 1 mg of purified protein at a concentration of 13.5 mg/ml, correlating to 2.13×10^−4M using an approximate molecular weight of 60 kDa. The stock was thawed and refrozen (untouched, without addition of any excipients) at −45° C. as 44 aliquots. These aliquots were subsequently used for all experiments.
Luciferin was purchased from Promega Corporation as a kit that also included ATP (code E1500). This kit shall henceforth be referred to as luciferin reagent and consisted of pairs of vials that required mixing before use. One vial contained a lyophilised powder and the other 10 ml of a frozen liquid. To produce stocks, these vials were mixed and then refrozen as 1 ml aliquots at −20° C. in standard 1.5 ml Eppendorf tubes. Vials and reconstituted luciferin reagent were stored at −20° C. in an opaque box and only removed under conditions of near-darkness. […]
The luciferase assay involved the mixing of various concentrations of luciferase with an undiluted aliquot of luciferin reagent in black opaque 96 well plates. The initial (linear) phase of this luminogenic reaction was then immediately quantified by a luminometer. As per the manufacturer's recommendation, luciferase samples were of a 100 μl volume and luminescence was initiated by addition of 100 μl of luciferin reagent. […]

Luciferase: luciferase enzyme purchased from Promega (code E1701 in Example 10)
thermal stability of luciferase (luminescence) [1]: improved thermal stability
lyoprotectant effects of sugar mix and PEI on luciferase activity ([2]; both added together before freeze-drying): synergistic
lyoprotectant contribution of excipient component on luciferase activity ([2]; sugar mix or PEI added after freeze-drying): wholly negates its contribution
